Measured values taken from US20090136510A1 (Eli Lilly, published 2009).
Each block holds one binder with its values, some of them ahead of it.

Legend:
[1] = molecular target: T1, recombinant human RON protein (rh-RON protein, R&D Systems; recombinant human MSPR) (human, UniProt Q04912 25-571); assay: ELISA, receptor immobilised on the plate (given as ED50)
T1 construct: Bought soluble recombinant protein; also called rhu-RON protein; rh-MSPR; not shown: His tag on the recombinant protein
T1 sequence (looked up): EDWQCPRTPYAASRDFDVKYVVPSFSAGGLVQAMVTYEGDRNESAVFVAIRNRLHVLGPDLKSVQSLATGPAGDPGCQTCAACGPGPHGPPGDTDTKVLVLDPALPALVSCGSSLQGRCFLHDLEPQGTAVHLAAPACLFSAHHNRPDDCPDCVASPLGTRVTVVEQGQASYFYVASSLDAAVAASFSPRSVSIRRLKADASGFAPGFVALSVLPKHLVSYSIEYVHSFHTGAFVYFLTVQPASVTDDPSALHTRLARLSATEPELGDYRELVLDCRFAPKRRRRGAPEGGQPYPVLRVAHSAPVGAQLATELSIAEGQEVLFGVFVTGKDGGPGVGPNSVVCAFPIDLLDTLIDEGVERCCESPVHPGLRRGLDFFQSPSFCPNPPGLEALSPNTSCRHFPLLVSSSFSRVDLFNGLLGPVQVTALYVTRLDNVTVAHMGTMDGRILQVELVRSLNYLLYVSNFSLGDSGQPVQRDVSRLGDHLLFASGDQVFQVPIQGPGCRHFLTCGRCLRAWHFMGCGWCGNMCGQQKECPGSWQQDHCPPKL
Procedure: The ability of the anti-RON antibodies, RON6 and RON8, to bind to recombinant human RON receptor and to block the MSP/RON interaction were measured using ELISA. […] Using the same ELISA format, the two antibodies were tested for their ability to block MSP/RON interactions. The measured IC₅₀ values were 46 pM for RON6 and 62 pM for RON8.

[2] = molecular target: T2, Recombinant RON-Fc (UniProt Q04912 25-957, limits assumed); assay: comparison of KD values; reference RON1
T2 construct: Immobilised on the BIAcore chip; also called RON proteins; not shown: Fc part
T2 sequence (looked up): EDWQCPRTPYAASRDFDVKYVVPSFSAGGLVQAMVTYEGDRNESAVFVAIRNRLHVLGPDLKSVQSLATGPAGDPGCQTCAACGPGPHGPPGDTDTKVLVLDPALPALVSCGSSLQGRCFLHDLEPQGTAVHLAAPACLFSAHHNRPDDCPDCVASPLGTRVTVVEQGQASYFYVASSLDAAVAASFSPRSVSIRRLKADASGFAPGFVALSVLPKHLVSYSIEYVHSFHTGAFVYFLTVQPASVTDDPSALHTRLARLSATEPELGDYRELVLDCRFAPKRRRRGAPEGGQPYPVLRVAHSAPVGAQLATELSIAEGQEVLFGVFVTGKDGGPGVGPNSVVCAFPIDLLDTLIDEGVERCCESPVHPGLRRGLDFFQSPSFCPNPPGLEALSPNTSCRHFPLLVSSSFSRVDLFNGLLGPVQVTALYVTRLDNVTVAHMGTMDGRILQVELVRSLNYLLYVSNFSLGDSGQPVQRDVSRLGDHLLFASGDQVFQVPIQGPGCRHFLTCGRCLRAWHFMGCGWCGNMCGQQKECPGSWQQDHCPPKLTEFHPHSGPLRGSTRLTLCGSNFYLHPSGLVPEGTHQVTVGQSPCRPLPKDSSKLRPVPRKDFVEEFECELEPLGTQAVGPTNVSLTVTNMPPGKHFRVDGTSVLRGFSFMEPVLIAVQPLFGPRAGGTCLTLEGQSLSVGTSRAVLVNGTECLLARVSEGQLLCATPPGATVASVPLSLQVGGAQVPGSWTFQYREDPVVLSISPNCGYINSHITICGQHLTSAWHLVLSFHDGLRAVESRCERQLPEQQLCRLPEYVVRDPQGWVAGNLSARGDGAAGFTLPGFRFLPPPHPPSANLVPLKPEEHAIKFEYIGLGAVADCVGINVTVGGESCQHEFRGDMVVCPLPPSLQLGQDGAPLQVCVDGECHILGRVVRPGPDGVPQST

[3] = molecular target: T2, Recombinant RON-Fc; assay: SPR (BIACORE 3000), RON-Fc immobilised, antibody injected; BIACORE 3000, RON-Fc immobilized
Procedure: BIAcore Analysis. The binding kinetics of the antibodies to the RON proteins was determined by using a BIACORE 3000 (BIAcore, Piscataway, N.J.). Recombinant RON-Fc was immobilized onto a sensor chip, and antibody was injected at various concentrations. Sensorgrams were obtained and evaluated using BIA Evaluation 2.0 software to determine rate constants. The affinity constant, KD, was calculated from the ratio of the rate constants Koff/Kₒₙ. The “Kₒₙ, M⁻¹.S⁻¹” and “Koff, S⁻¹” rates of the interaction were used to determine the affinity (Kd, M) of the antibody/receptor interaction. […] For RON8 they were: 3.2e-11, 6.1e6 and 2.0e-4

[4] = molecular target: T2, Recombinant RON-Fc; assay: method and RON form not stated at this place; clone-selection value of paragraph 178; method and RON form not stated
[5] = molecular target: T1, recombinant human RON protein (rh-RON …); assay: ELISA, blocking of MSP/RON interaction; ligand MSP
[6] = molecular target: T1, recombinant human RON protein (rh-RON …); assay: blocking ELISA: serially diluted RON8 pre-incubated with His-tagged recombinant human RON (rh-MSPR), added to plate-immobilised recombinant human MSP (the blocked ligand); bound RON detected with anti-His-tag HRP, absorbance 450 nm
Procedure: ELISA to Detect RON8 Blocking of MSP Binding to RON: ELISA plates were coated with 100 ng/well carrier-free MSP (R&D Systems) overnight at 4° C. on a rocker. The plate was washed once with 0.2% PBS/T and blocked for 2 hours at 37° C. with 150 μL/well 3% milk. A 15 μg/mL dilution of RON8 was prepared and serially diluted across another ELISA plate. To the RON8, was added 100 ng/well recombinant human MSPR (R&D Systems). The RON8/rh-MSPR complex was allowed to form for 2 hours at room temperature on a rocker. Next, the MSP-coated ELISA plate was washed once with 0.2% PBS/T and 100 μL of the RON8/rh-MSPR complex were added per well. After a 1.5-hour incubation at room temperature, the plate was washed five times with 0.2% PBS/T and incubated for 1 hour at room temperature with a 1:2,000 dilution of anti-His-tag HRP antibody (Sigma), which recognizes a His tag on the recombinant human MSPR protein. The plate was washed five times with 0.2% PBS/T and 100-AL substrate was added per well until a yellow color developed. The reaction was stopped with 50 μL of 1N H₂SO4 and the absorbance at 450 nm determined with a standard plate reader. The results of which are illustrated by FIG. 6A depict the solid-phase blocking characteristic of RON8. The ELISA data determined the IC50 value of RON8 needed to block the interaction of recombinant human RON protein to immobilized recombinant human MSP.

EC50 [1]: 0.0042 nM
fold greater affinity than RON1 [2]: 100 fold
Kd [3]: 0.041 nM
koff [3]: 8.6e-05 s⁻¹
kon [3]: 2.2e+06 M⁻¹ s⁻¹
Kd [4]: 0.045 nM
IC50 [5]: 0.046 nM
B1: RON6 antibody (human anti-RON monoclonal antibody) (antibody, human IgG1, kappa, V domains shown)
VH: QVQLVQSGPEVKKSGSSVKVSCKASGGTFSSDAITWVRQAPGQGLEWMGGIIPILGMANYAQKFQGRVTITADKSTNTAYMELSSLRSEDTAVYFCARVADYYGLGTYYWYFDLWGRGTLVTVSS
VL: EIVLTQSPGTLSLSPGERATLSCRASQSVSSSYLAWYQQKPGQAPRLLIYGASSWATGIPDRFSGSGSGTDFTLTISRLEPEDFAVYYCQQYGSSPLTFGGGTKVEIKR
notes: Fully human IgG from HuMAb mice

EC50 [1]: 0.0021 nM
IC50 [6]: 0.473 nM
IC50 (read off the curve) [6]: ~0.5 nM
fold greater affinity than RON1 [2]: 100 fold
Kd [3]: 0.032 nM
koff [3]: 0.0002 s⁻¹
kon [3]: 6.1e+06 M⁻¹ s⁻¹
Kd [4]: 0.023 nM
IC50 [5]: 0.062 nM
B2: RON8 antibody (human anti-RON monoclonal antibody) (antibody, human IgG1, kappa, V domains shown)
VH: EVQLVESGGGLVQPGGSLRLSCAASGFTFSSYLMTWVRQAPGKGLEWVANIKQDGSEKYYVDSVKGRFTISRDNAKNSLNLQMNSLRAEDTAVYYCTRDGYSSGRHYGMDVWGQGTTVIVSS
VL: EIVLTQSPATLSLSPGERATLSCRASQSVSRYLAWYQQKPGQAPRLLIYDASNRATGIPARFSGSGSGTDFTLTISSLEPEDFAVYYCQQRSNWPRTFGQGTKVEIKR
notes: as for B1
